# Measured values as given in patent US20260167724A1.
# Several values for one entry are separate records, joined by “and”; a condition that tells them apart may be missing. Equal entries are not always repeated.
# Molecular target: CD3 on the Jurkat cell
# Assay: cell-based or functional assay
binder,measurement,value
"Axl-WT×CD3-WT (bispecific antibody, part only; not given: constant regions and linkers, not shown: a dimerising Fc or GST) heavy: EVQLVQSGAEVKKPGATVKISCKVSGYSFTGHTMNWIRQPPGKGLEWIGLIKPSNGGTSYNQKFKGRVTISADKSISTAYLQWSSLKASDTAMYYCAHGHYESYFAMDYWGQGTSVTVSS light (part 1 of 2), part: DIQMTQSPSSLSASVGDRVTITCKASQDVSSAVAWYQQKPGQAPRLLIYWASTRHTGVPSRFSGSGSGTEFTLTISSLQPDDFATYYCQEHFSTPLTFGQGTKVEIK light (part 2 of 2), part: QAVVTQEPSLTVSPGGTVTLTCRSSTGAVTTSNYANWVQQKPGQAPRGLIGGTNKRAPWTPARFSGSLLGGKAALTITGAQAEDEADYYCALWYSNLWVFGGGTKLTVLGEVQLVESGGGLVQPGGSLRLSCAASGFTFNTYAMNWVRQAPGKGLEWVARIRSKYNNYATYYADSVKDRFTISRDDSKNSLYLQMNSLKTEDTAVYYCVRHGNFGNSYVSWFAYWGQGTLVTVSS","Luciferase Amount, pH 6.0, at CHO-Axl concentration (ng/mL) 0.00000",893 RLU and 937 RLU
same,"Luciferase Amount, pH 6.0, at CHO-Axl concentration (ng/mL) 0.01000",1230 RLU and 1330 RLU
same,"Luciferase Amount, pH 6.0, at CHO-Axl concentration (ng/mL) 0.1000",2310 RLU and 2000 RLU
same,"Luciferase Amount, pH 6.0, at CHO-Axl concentration (ng/mL) 1.000",10700 RLU and 10000 RLU
same,"Luciferase Amount, pH 6.0, at CHO-Axl concentration (ng/mL) 10.00",44900 RLU and 46700 RLU
same,"Luciferase Amount, pH 6.0, at CHO-Axl concentration (ng/mL) 100.0",77200 RLU and 83200 RLU
same,"Luciferase Amount, pH 6.0, at CHO-Axl concentration (ng/mL) 1000.0",96200 RLU and 90400 RLU
same,"Luciferase Amount, pH 6.0, at CHO-Axl concentration (ng/mL) 10000.0",100000 RLU and 102000 RLU
same,"Luciferase Amount, pH 7.4, at CHO-Axl concentration (ng/mL) 0.00000",2280 RLU and 2160 RLU
same,"Luciferase Amount, pH 7.4, at CHO-Axl concentration (ng/mL) 0.01000",2270 RLU and 2350 RLU
same,"Luciferase Amount, pH 7.4, at CHO-Axl concentration (ng/mL) 0.1000",3930 RLU and 3970 RLU
same,"Luciferase Amount, pH 7.4, at CHO-Axl concentration (ng/mL) 1.000",17700 RLU and 18400 RLU
same,"Luciferase Amount, pH 7.4, at CHO-Axl concentration (ng/mL) 10.00",51800 RLU and 57100 RLU
same,"Luciferase Amount, pH 7.4, at CHO-Axl concentration (ng/mL) 100.0",94100 RLU and 99200 RLU
same,"Luciferase Amount, pH 7.4, at CHO-Axl concentration (ng/mL) 1000.0",113000 RLU and 112000 RLU
same,"Luciferase Amount, pH 7.4, at CHO-Axl concentration (ng/mL) 10000.0",135000 RLU and 139000 RLU
